# Results taken from patent US20050287132A1, “Biliverdin reductase fragments and variants, and methods of using biliverdin reductase and such fragments and variants” (University of Rochester, priority 1999, published 2005).
# Numbering of substitutions follows the chain as printed.
# B1: rat biliverdin reductase as used in the PKC activity assays (protein)
# chain: AEPKRKFGVVVVGVGRAGSVRLRDLKDPRSAAFLNLIGFVSRRELGSLDEVRQISLEDALRSQEIDVAYICSESSSHEDYIRQFLQAGKHVLVEYPMTLSFAAAQELWELAAQKGRVLHEEHVELLMEEFEFLRREVLGKELLKGSLRFTASPLEEERFGFPAFSGISRLTWLVSLFGELSLISATLEERKEDQYMKMTVQLETQNKGLLSWIEEKGPGLKRNRYVNFQFTSGSLEEVPSVGVNKNIFLKDQDIFVQKLLDQVSAEDLAAEKKRIMHCLGLASDIQKLCHQKK
# B2: BVR peptide Q288KLCHQKK295 (peptide 2) (peptide)
# peptide: QKLCHQKK
# B3: PKC inhibitor peptide RKRCLRRL (peptide)
# peptide: RKRCLRRL
# B4: Lys^92/His^93: hBVR with Lys^92His^93→Ala-Ala within the oxidoreductase motif (protein, UniProt P53004 3-296, looked up, variant K92A H93A)
# Biliverdin reductase A: AEPERKFGVVVVGVGRAGSVRMRDLRNPHPSSAFLNLIGFVSRRELGSIDGVQQISLEDALSSQEVEVAYICSESSSHEDYIRQFLNAGAAVLVEYPMTLSLAAAQELWELAEQKGKVLHEEHVELLMEEFAFLKKEVVGKDLLKGSLLFTAGPLEEERFGFPAFSGISRLTWLVSLFGELSLVSATLEERKEDQYMKMTVCLETEKKSPLSWIEEKGPGLKRNRYLSFHFKSGSLENVPNVGVNKNIFLKDQNIFVQKLLGQFSEKELAAEKKRILHCLGLAEEIQKYCCSRK
# B5: Cys^74: hBVR with Cys^74→Ala within a substrate binding domain (protein, UniProt P53004 3-296, looked up, variant C74A)
# Biliverdin reductase A: B4 Biliverdin reductase A with C72A, A90K, A91H
# B6: Cys^292^,^293: hBVR construct with Cys^292+Cys^293→Ala mutations (protein, UniProt P53004 3-296, looked up, variant C292A C293A)
# Biliverdin reductase A: B4 Biliverdin reductase A with A90K, A91H, C290A, C291A
# B7: Cys^74,204^,^281,292,293: hBVR construct with all 5 Cys residues combined changed to Ala (protein, UniProt P53004 3-296, looked up, variant C74A C204A C281A C292A C293A)
# Biliverdin reductase A: B4 Biliverdin reductase A with C72A, A90K, A91H, C202A, C279A, C290A, C291A
# B8: Cys^281: hBVR with Cys^281→Ala within the zinc finger domain (protein, UniProt P53004 3-296, looked up, variant C281A)
# Biliverdin reductase A: B4 Biliverdin reductase A with A90K, A91H, C279A
# B9: Ser^44: hBVR SEQ. ID. No. 1 with Ser^44→Ala within one of the kinase motifs (protein, listed as Homo sapiens)
# chain: MNAEPERKFGVVVVGVGRAGSVRMRDLRNPHPSSAFLNLIGFVARRELGSIDGVQQISLEDALSSQEVEVAYICSESSSHEDYIRQFLNAGKHVLVEYPMTLSLAAAQELWELAEQKGKVLHEEHVELLMEEFAFLKKEVVGKDLLKGSLLFTSDPLEEDRFGFPAFSGISRLTWLVSLFGELSLVSATLEERKEDQYMKMTVCLETEKKSPLSWIEEKGPGLKRNRYLSFHFKSGSLENVPNVGVNKNIFLKDQNIFVQKLLGQFSEKELAAEKKRILHCLGLAEEIQKYCCSRK
# B10: BVR peptide K274KRIMHC280 (peptide 1) (peptide)
# peptide: KKRIMHC
# Experiments:
# [1] = tested on: PKC; assay: Effect of BVR and peptides on PKC activity (MBP substrate, kinetic analysis); type: biochemical; conditions: for Vmax of the PKC reaction with respect to ATP / Vmax of the PKC reaction with respect to MBP: in the presence of 50 μM BVR or peptide; for Km for the substrate (MBP) of the PKC reaction: in the presence of 50 μM peptide; for nature of kinetics with respect to substrate concentration: MBP varied
# Protocol: FIGS. 11A-C are graphs depicting the role of BVR in increasing protein kinase C activity. FIG. 11A depicts the dose-dependence of PKC activity in the presence of BVR or PKC inhibitor peptide (“PKCI”) in an assay system containing 0.5 μg/ml PKC, 50 μM unlabeled ATP, 5 μCi[^32γP]-ATP and 1 mg/ml MBP and carried out as described infra. FIGS. 11B-C are the kinetic analyses of PKC activity carried out with respect to MBP (FIG. 11B) and with respect to ATP (FIG. 11C) in the presence or absence of 50 μM BVR.
# FIGS. 12A-C are graphs illustrating the effect of various rBVR fragments on PKC activity. Protein kinase C was incubated at 30° C. with buffer or with the indicated peptides (50 μM) for 15 min prior to addition to a kinase assay using MBP as substrate. FIG. 12A depicts the relative activity for each sample normalizing to that of the PKC and buffer control value. FIGS. 12B-C are the kinetic analyses of PKC with respect to substrate MBP (FIG. 12B) and ATP (FIG. 12C) in the presence or absence of BVR peptide fragments (50 μM). BVR1 peptide corresponds to SEQ. ID. No. 34 and BVR2 peptide corresponds to SEQ. ID. No. 19.
# Incubation time was 8 min at 30° C.
# [2] = biological target: protein kinase C (a mixture containing equal amounts of isozymes α, β and γ) (Promega)
# [3] = biological target: protein kinase C (a mixture containing equal amounts of isozymes α, β and γ) (Promega); assay: cell-based or functional assay
# [4] = Biliverdin reductase activity of E. coli expressed hBVR wild type and mutants (Example 1); type: biochemical, human; conditions: for Activity (nmol bilirubin/min/mg) pH 6.7 + NADH: pH 6.7, NADH cofactor; for Activity (nmol bilirubin/min/mg) pH 6.7 + NADH / Activity (nmol bilirubin/min/mg) pH 8.7 + NADPH: 25°; for Activity (nmol bilirubin/min/mg) pH 8.7 + NADPH: pH 8.7, NADPH cofactor; for Activity % pH 6.7 + NADH / Activity % pH 8.7 + NADPH: Cys→Ala mutations; for Activity % pH 6.7 + NADH: wild type = 100, pH 6.7, NADH; for Activity % pH 8.7 + NADPH: wild type = 100, pH 8.7, NADPH
# Protocol: SalI linkers are underlined in each primer. The products were digested with SalI and cloned into the vector pGEX 4T-2. Orientation was determined by restriction analysis and confirmed by sequencing. The ligation places the BVR coding region in frame with the GST protein of the vector. GST-BVR fusion proteins were purified from bacterial clones containing the plasmid, and grown overnight using a glutathione-sepharose 4B column (Pharmacia). The reductase portion of the fusion protein was released by thrombin protease treatment.
# Activity was determined as previously described (Kutty et al., J. Biol. Chem. 256:3956-3962 (1981); Huang et al., J. Biol. Chem. 264:7844-7849 (1989), which are hereby incorporated by reference). Activity was determined in a 1 ml assay volume that contained 0.1 M Tris/HCl, pH 8.7 NADPH (100 μM), and biliverdin (5 μM). Reductase activity was also measured using NADH (1 mM) as the cofactor; in this case 0.1 M potassium phosphate pH 6.75, was substituted for Tris/HCl. SDS/PAGE was performed by the method of Laemmli, Nature 227:680-685 (1970), which is hereby incorporated by reference. Western blot analysis was performed using anti-serum to human kidney biliverdin reductase as previously described (Maines et al., Arch. Biochem. Biophys. 300:320-326 (1993), which is hereby incorporated by reference). The relative amounts of immunoreactive protein were determined by scanning the blot using a laser densitometer and comparing the area under the peak for each mutant with the wild type. The rate of activity was measured as the increase in 450 nm absorbance at 25° C. Specific activity is expressed as nmol bilirubin/min/ mg protein.
# [5] = Biliverdin reductase catalytic activity of recombinant wild type and mutant hBVR (Example 2, FIG. 3); type: biochemical, human; conditions: pH/cofactor not stated
# Protocol: FIGS. 3A-C are graphs depicting the effects of mutation of Gly^17, Ser^149, and Lys^296 on BVR catalytic activity. Purified preparations of recombinant wild type and mutant BVR with substitution of Gly^17 (FIG. 3A), Ser^149 (FIG. 3B), or Lys^296 (FIG. 3C) with Ala were assessed for BVR activity at pH 6.5 using NADH as cofactor and at pH 8.7 with NADPH as cofactor. Values presented are in percent wild type activity for each pH. The specific activity of the wild type preparation was 1744 nmol bilirubin produced min^−1 mg^−1 at pH 6.5 and 1147 nmol bilirubin produced min^−1 mg^−1 at pH 8.7. Values presented are representative of 2-4 determinations.
# GST-BVR fusion proteins were prepared as described in Example 1. Human kidney biliverdin reductase was purified to homogeneity as described by Maines et al., Arch. Biochem. Biophys. 300:320-326 (1993), which is hereby incorporated by reference. The purified reductase preparations were judged to be homogenous by SDS-PAGE. Protein concentration was determined by the method of Bradford, Anal. Biochem. 72:248-254 (1976), which is hereby incorporated by reference.
# Activity was determined as previously described by Huang et al., J. Biol. Chem. 264:7844-7849 (1989), which is hereby incorporated by reference, using NADPH as the cofactor at pH 8.7 in 0.1 M […] or NADH at pH 6.5 in […]. The rate of activity was measured as the increase in 450 nm absorbance at 25° C. Specific activity is expressed in units/mg protein, where 1 unit catalyzes the formation of 1 nmol bilirubin/min.
molecule,measurement,setting,value
"RKRCLRRL [PKCI peptide, ID; No. 29, reference compound]",dose dependence of PKC activity (^32P into MBP),"[1]; PKC preincubated 15 min at 30° C., MBP substrate",dose-dependent inhibition of activity
same,inhibition of PKC activity,"[1]; peptide 50 μM, MBP substrate",90%
"QKLCHQKK [peptide 2, ID; No. 19]",Vmax of the PKC reaction with respect to ATP,[1],3.12 pmol/min
same,Vmax of the PKC reaction with respect to MBP,[1],1.82 pmol/min
same,Km for the substrate (MBP) of the PKC reaction,[1],0.12 mg/mL
same,inhibition of PKC activity,"[1]; peptide 50 μM, MBP substrate",more than 75%
same,nature of kinetics with respect to substrate concentration,[1]; peptide 50 μM,uncompetitive
"KKRIMHC [peptide 1, ID; No. 18]",Vmax of the PKC reaction with respect to ATP,[1],4.2 pmol/min
same,Vmax of the PKC reaction with respect to MBP,[1],2.92 pmol/min
same,Km for the substrate (MBP) of the PKC reaction,[1],0.39 mg/mL
same,effect on PKC activity,"[1]; peptide 50 μM, MBP substrate",stimulated PKC activity
same,nature of kinetics with respect to substrate concentration,[1]; peptide 50 μM,mixed kinetics
B1,"Km of the PKC reaction for the substrate MBP, upon addition of BVR",[2],substrate Km increasing from 0.145 to 0.16 upon addition of BVR to the reaction
same,"PKC activity, incorporation of 32P into MBP, after 15 min preincubation of PKC with varying concentrations of BVR",[2],incorporation of ^32P into MBP was increased in a dose-dependent manner in the presence of BVR
same,"Vmax of the PKC reaction with respect to ATP, in the presence of 50 µM BVR",[2],"increased from 3.3 to 4.9 and 1.7 to 2.9 pmol/min, respectively"
same,"Vmax of the PKC reaction with respect to MBP, in the presence of 50 µM BVR",[2],"increased from 3.3 to 4.9 and 1.7 to 2.9 pmol/min, respectively"
B2,"Km of the PKC reaction for the substrate MBP, peptide 50 µM (control 0.165 mg/ml)",[3],0.12 mg/mL
same,"Vmax of the PKC reaction with respect to the cofactor ATP, peptide 50 µM (control 3.81 pmol/min)",[3],3.12 pmol/min
same,"Vmax of the PKC reaction with respect to the substrate MBP, peptide 50 µM (control 2.25 pmol/min)",[3],1.82 pmol/min
same,"inhibition of PKC activity with MBP as substrate, peptide 50 µM",[3],> 75%
B3,"inhibition of PKC activity, peptide at the same concentration as BVR peptide 2",[3],90%
B4,Activity (nmol bilirubin/min/mg) pH 6.7 + NADH,[4],0 nmol bilirubin/min/mg
same,reductase activity relative to the control (wild type),[4]; pH 6.7 with NADH,loss of enzyme activity
same,Activity (nmol bilirubin/min/mg) pH 8.7 + NADPH,[4],0 nmol bilirubin/min/mg
same,reductase activity relative to the control (wild type),[4]; pH 8.7 with NADPH,loss of enzyme activity
B5,Activity % pH 6.7 + NADH,[4],44%
same,Activity % pH 8.7 + NADPH,[4],45%
B6,Activity % pH 6.7 + NADH,[4],94%
same,Activity % pH 8.7 + NADPH,[4],100%
B7,Activity % pH 6.7 + NADH,[4],1%
same,Activity % pH 8.7 + NADPH,[4],10%
B8,Activity % pH 6.7 + NADH,[4],31%
same,Activity % pH 8.7 + NADPH,[4],23%
B9,enzyme activity,[5],did not display loss of enzyme activity
same,Activity (nmol bilirubin/min/mg) pH 6.7 + NADH,[4],7443 nmol bilirubin/min/mg
same,increase in activity at pH 6.7 with NADH,"[4]; pH 6.7, NADH, versus wild type",2.5 fold
same,Activity (nmol bilirubin/min/mg) pH 8.7 + NADPH,[4],333 nmol bilirubin/min/mg
same,reduction in NADPH-dependent activity,"[4]; pH 8.7, NADPH, versus wild type",70-75%
B10,"Km of the PKC reaction for the substrate MBP, peptide 50 µM (control 0.165 mg/ml)",[3],0.39 mg/mL
same,"Vmax of the PKC reaction with respect to the cofactor ATP, peptide 50 µM (control 3.81 pmol/min)",[3],4.2 pmol/min
same,"Vmax of the PKC reaction with respect to the substrate MBP, peptide 50 µM (control 2.25 pmol/min)",[3],2.92 pmol/min
